{"source": "paper PMC7390762", "target": "N-utilization substance (Nus) G, Escherichia coli (E. coli) (UniProt P0AFG0)", "sequence (P0AFG0 whole entry)": "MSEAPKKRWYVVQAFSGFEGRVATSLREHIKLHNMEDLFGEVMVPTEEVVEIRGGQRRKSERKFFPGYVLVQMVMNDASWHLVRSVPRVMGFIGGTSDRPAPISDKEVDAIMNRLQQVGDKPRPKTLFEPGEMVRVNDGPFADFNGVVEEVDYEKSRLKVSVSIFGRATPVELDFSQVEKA", "experiment": "cryo-EM structure"}
{"substance": "70S ribosome (E. coli), intact (from UniProt P0A7R5 5-102) (complex)", "values": [{"measurement": "percent of particles with extra density at S10", "value": 5, "unit": "%"}, {"measurement": "stoichiometry N", "value": 1}]}
